Laboratory results as given in US20100041610A1.

Biological target: Class A TC protein XptA2wi (Xenorhabdus nematophilus xwi)
Assay: cell-based or functional assay

Substance: TcdB2+TccC3 complex (non fused)
- killing/stunting activity against corn earworm larvae, XptA2 held constant at 250 ng/cm^2: 7.8 ng/cm^2
